# Target: ADDL fibril preparation (Aβ1-42 fibrils made in 10 mM hydrochloric acid)
# Assay: solution equilibrium titration; free IgG by ELISA; GraFit
substance,measurement,value
monoclonal antibody WO-2,Kd,1.15 nM

# Reference: patent US20110159013A1
